The results in this text go back to paper PMC11212022.

For this assay, the target named is recombinant protein A/G (Pierce). Nature of the assay: plasmonic metamaterial refractive-index sensing (resonance wavelength shift, reflection probe); protein A/G (500 ug/mL in PBS, 45 min) physisorbed on gold nanodiscs of the sensor, washed 30 min with PBS; IgG 50 ug/mL applied in a microfluidic cell, plateau after 45 min, washed 30 min with …; reflection read at 1 min intervals.

On to “antimouse IgG (labeled with FITC) produced in goat (F5262, Sigma-Aldrich) (antibody)”, for which the resonance wavelength shift came out at 2 nm.
